Patent US10449259B2, “Enzyme-responsive peptide nanofiber compositions and uses thereof” (Cornell University, priority 2015, dated 2019)
Each block holds one compound with its values, some of them ahead of it. Primed or numbered codes have the meaning given here. *: point of attachment. mPEG2000 = methoxypolyethylene glycol polymer of 2 kDa, conjugated at the peptide N-terminus; FITC = O=C1OC2(c3ccc(O)cc3Oc3cc(O)ccc32)c2ccc(NC(=S)*)cc21; FITC′ = fluorescein isothiocyanate label; mPEG2000(3) = 2 kDa mPEG at N-terminus; Cy5.5 = Cy5.5 fluorophore

How the values were obtained:
[1] = tested on: MDA-MB-468 tumors; experiment: In vivo fluorescence monitoring of distribution after tail vein injection, MDA-MB-468 tumors; set-up: species or system nude mice; settings: 0.5 nmol of fluorophore content, 48 hours post-injection
Protocol: Similar results were observed when the animals were injected with GSH-NFP nanofibers having a homogenous length of 400 nm. FIGS. 16A and 16B (white arrows).

[2] = tested on: HER2-positive breast cancer (BT474) cells; experiment: CellTiter-Glo luminescent cell viability (cytotoxicity) assay, BT474; type: cell-based, human; settings: 5 days of incubation, concentration according to DM1 content, mean ± SD, triplicate
Protocol: Briefly, cells were seeded on a 96-well plate (2×10^3/well for MDA-MB-231 and MDA-MB-468 and 2×10^4/well for BT474) and were allowed to stabilize overnight. […] After 5 days of incubation, CellTiter-Glo reagent (100 μL) was added to each well. The generated oxyluciferin was quantified for emitted luminescence using a microplate reader (Tecan US Inc., Morrisville, N.C.). […] Statistical analyses were performed using Graph Pad Prism 6.0 software. All data were normalized to the values obtained with the untreated control cells, and half maximal inhibitory concentrations (IC50) were calculated by fitting the obtained data to a sigmoidal curve.
The cytotoxicity of the DM1-loaded nanofibers was evaluated using various human HER2-positive breast cancer (BT474) and triple-negative breast cancer (MDA-MB-231 and MDA-MB-468) cell lines as ex vivo models. A luminescent cell viability assay was employed to determine the cell viability through quantification of the adenosine triphosphate (ATP) produced by metabolically active cells. […] Because the cell killing of DM1 is slow, the assays were performed following the incubation of the tested samples for 5 days, as previously described in Junttila et al., Breast Cancer Res. Treat.

[3] = tested on: triple-negative breast cancer MDA-MB-231 cells; experiment: CellTiter-Glo luminescent cell viability (cytotoxicity) assay, MDA-MB-231; type: cell-based, human; settings: for IC50: 5 days of incubation, concentration according to DM1 content, mean ± SD, triplicate; for toxicity of naked nanofibers: below a concentration of 1 μM
Protocol: (§1) The cytotoxicity of drug-loaded NFP1 and NFP2 nanofibers was assessed using the CellTiter-Glo Luminescent Cell Viability Assay (Promega, Madison, Wis.) as previously described in Junttila et al., Breast Cancer Res. Treat. 128 (2), 347-356 (2011). Briefly, cells were seeded on a 96-well plate (2×10^3/well for MDA-MB-231 and MDA-MB-468 and 2×10^4/well for BT474) and were allowed to stabilize overnight. […] After 5 days of incubation, CellTiter-Glo reagent (100 μL) was added to each well. The generated oxyluciferin was quantified for emitted luminescence using a microplate reader (Tecan US Inc., Morrisville, N.C.). All experiments were performed in triplicate, and the results were presented as mean±standard deviation. Statistical analyses were performed using Graph Pad Prism 6.0 software. All data were normalized to the values obtained with the untreated control cells, and half maximal inhibitory concentrations (IC50) were calculated by fitting the obtained data to a sigmoidal curve.
(§2) The cytotoxicity of the DM1-loaded nanofibers was evaluated using various human HER2-positive breast cancer (BT474) and triple-negative breast cancer (MDA-MB-231 and MDA-MB-468) cell lines as ex vivo models. A luminescent cell viability assay was employed to determine the cell viability through quantification of the adenosine triphosphate (ATP) produced by metabolically active cells. This assay offered more accurate and reproducible results compared to the widely used MTS assay (data not shown). Because the cell killing of DM1 is slow, the assays were performed following the incubation of the tested samples for 5 days, as previously described in Junttila et al., Breast Cancer Res. Treat. 128 (2), 347-356 (2011).

[4] = tested on: triple-negative breast cancer MDA-MB-468 cells; experiment: CellTiter-Glo luminescent cell viability (cytotoxicity) assay, MDA-MB-468; type: cell-based, human; settings: for IC50: 5 days of incubation, concentration according to DM1 content, mean ± SD, triplicate; for toxicity of naked nanofibers: below a concentration of 1 μM
Protocol: as §1, §2

[5] = target: T1, CathB (purified from bovine spleen) (Bos taurus, UniProt P07688); experiment: Enzyme digestion study with CathB (HPLC, MALDI-TOF, TEM, fluorescence); type: biochemical; settings: for CathB digestion, peptide fragments by HPLC: 50 μM peptide content, sodium acetate buffer pH 4, 24 hours; for CathB digestion, peptide fragments by HPLC / fluorescence change of quenched nanofibers after CathB digestion: CathB 0.3 U; for morphological change in response to CathB digestion (TEM): 24 hour incubation with the enzyme; for fluorescence change of quenched nanofibers after CathB digestion: 0.1 μM peptide content, pH 4, 24 hours
T1 construct: CathB (purified from bovine spleen); purchased EMD Millipore (Billerica, Mass.); host or cells: bovine spleen (tissue-purified)
Protocol: NFP1 and NFP2 nanofibers (50 μM of peptide content) were incubated with CathB (0.3 U) in sodium acetate buffer (50 μM; pH 4). Nanofibers incubated with buffer only were used as the negative controls. After 24 hours, the samples were taken out for TEM, rp-HPLC, and MALDI-TOF analysis.
Intact or digested NFP1 and NFP2 nanofibers (10 μM of peptide content) in buffer (20 μL) were transferred onto Formvar/carbon-coated 400 mesh copper grids (Electron Microscopy Sciences, Hatfield, Pa.). Excess nanofibers were blotted off using filter paper and the samples were stained with 0.5% (v/v) uranyl formate solution (20 μL). After drying at room temperature, the grids were examined under TEM (JEOL JEM-1400 LaB6 TEM operating at 120 Kv).

Compound: Cn1cnc(N)c2ncnc1-2 [3MA]
tumoral uptake relative to Cy5.5 [1]: increased tumoral uptake

Compound: COc1cc2cc(c1Cl)N(C)C(=O)C[C@H](OC(=O)[C@H](C)N(C)C(=O)CCS)[C@]1(C)O[C@H]1[C@H](C)[C@@H]1C[C@@](O)(NC(=O)O1)[C@H](OC)/C=C/C=C(\C)C2 [DM1, N2′-deacetyl-N2′-(3-mercapto-1-oxopropyl)-maytansine, reference compound]
IC50 [2]: 68.1 ± 5 nM
IC50 [3]: 35.4 ± 4.2 nM
IC50 [4]: 21.9 ± 4.1 nM

Compound: FITC-NFP1: mPEG2000, hexalysine motif, self-assembling domain KLDLKLDLKLDLK and FITC fluorophore (mPEG2000-KKKKKKKLDLKLDLKLDLK(FITC)-NH2; not fully specified)
CathB digestion, peptide fragments by HPLC [5]: multiple peptide fragments
morphological change in response to CathB digestion (TEM) [5]: disintegrated and became shorter in length

morphological change in response to CathB digestion (TEM) [5]: assembled into an interfibril network
Compound: FITC-NFP2: mPEG2000, self-assembling domain KLDLKLDLKLDLK and FITC fluorophore (mPEG2000-KLDLKLDLKLDLK(FITC)-NH2; not fully specified)
CathB digestion, peptide fragments by HPLC [5]: only one fragment

Compound: NFP1: naked nanofiber of mPEG peptides with hexalysine motif and self-assembling domain KLDLKLDLKLDLK (mPEG2000-KKKKKKKLDLKLDLKLDLK(FITC′)-NH2; not fully specified)
toxicity of naked nanofibers at high concentration ([3]; 10 μM): significant cell growth inhibition
toxicity of naked nanofibers [3]: nontoxic
toxicity of naked nanofibers at high concentration ([4]; 10 μM): significant cell growth inhibition
toxicity of naked nanofibers [4]: nontoxic
sensitivity to CathB digestion ([5]; compared to NFP2): increased sensitivity to CathB digestion

Compound: NFP2: naked nanofiber of mPEG peptides with self-assembling domain KLDLKLDLKLDLK, no hexalysine motif (mPEG2000-KLDLKLDLKLDLK(FITC′)-NH2; also: mPEG, site not given here)
toxicity of naked nanofibers [3]: nontoxic
toxicity of naked nanofibers [4]: nontoxic

Compound: T-DM1 [reference compound]
IC50 [3]: 68.9 ± 3.8 nM
IC50 [4]: 65.2 ± 4.4 nM

fluorescence change of quenched nanofibers after CathB digestion [5]: only slightly increased
Compound: mPEG2000 KLDLKLDLKLDLK-Cy5.5 ({mPEG2000(3)}-KLDLKLDLKLDLK-{Cy5.5}) [Cy5.5-NFP2, optically quenched nanofiber prepared using Cy5.5-conjugated peptide constructs only]

fluorescence change of quenched nanofibers after CathB digestion [5]: recovery of the fluorescence signal
Compound: mPEG2000-KKKKKKKLDLKLDLKLDLK-Cy5.5 (mPEG2000-KKKKKKKLDLKLDLKLDLK-{Cy5.5}) [Cy5.5-NFP1, optically quenched nanofiber prepared using Cy5.5-conjugated peptide constructs only]
